The results in this text go back to US20230272055A1 (Incyte, published 2023).

Broadly, the EC50 is the concentration giving half of the maximal effect. A high value points to a need for much substance.

To fix the notation:
T1: human mutCALR on BaF3 cells stably expressing human MPL and human mutCALR (MPL-mutCALR cells) (human)
T1 construct: also called mutant calreticulin
T1 chain: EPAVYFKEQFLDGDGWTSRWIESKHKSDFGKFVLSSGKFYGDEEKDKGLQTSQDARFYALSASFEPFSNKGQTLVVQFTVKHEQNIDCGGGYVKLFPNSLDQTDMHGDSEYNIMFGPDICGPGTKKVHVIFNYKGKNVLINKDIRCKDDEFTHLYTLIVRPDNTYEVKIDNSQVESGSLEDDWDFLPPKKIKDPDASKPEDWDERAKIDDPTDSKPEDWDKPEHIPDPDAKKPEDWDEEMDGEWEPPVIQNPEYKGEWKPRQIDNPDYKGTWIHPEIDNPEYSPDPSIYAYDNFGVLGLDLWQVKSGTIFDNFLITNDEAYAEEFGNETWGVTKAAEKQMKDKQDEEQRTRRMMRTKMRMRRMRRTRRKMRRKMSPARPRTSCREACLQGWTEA

B1: anti-mutCALR antibody clone 70 (antibody, human IgG1, lambda, N297A, V domains shown)
VH: EVQLVQSGAEVKKPGASVKVSCKVSGYTLTELSMQWVRQAPGKGLEWMGGFDPDDGETMYAEKFQGRLTVTEDTSTDTVYMELSSLRSEDTAVYFCATSPGYDFFDYWGQGTLVTVSS
VL: SYVLTQPPSVSVAPGKTARITCTGTSSDVGGYNYVSWYQQKPGQAPVLVVYEVSNRPSGIPERFSGSNSGNTATLTISRVEAGDEADYYCQVWDSSNDLLIFGGGTKLTVLG
B2: anti-mutCALR antibody clone 72 (antibody, human IgG1, lambda, N297A, V domains shown)
VH: B1 VH with D55S
VL: B1 VL
B3: anti-mutCALR antibody clone 74 (antibody, human IgG1, lambda, N297A, V domains shown)
VH: B1 VH with G56A
VL: B1 VL
B4: anti-mutCALR antibody clone 67 (antibody, human IgG1, lambda, N297A, V domains shown)
VH: B1 VH with D55S, S84R, R87T, V93L
VL: B1 VL
B5: anti-mutCALR antibody clone 65 (antibody, human IgG1, lambda, N297A, V domains shown)
VH: B1 VH with S84R, R87T, V93L
VL: B1 VL
B6: anti-mutCALR antibody clone 71 (antibody, human IgG1, lambda, N297A, V domains shown)
VH: B1 VH with D55A
VL: B1 VL
B7: anti-mutCALR antibody clone 73 (antibody, human IgG1, lambda, N297A, V domains shown)
VH: B1 VH with D55E
VL: B1 VL
B8: anti-mutCALR antibody clone 66 (antibody, human IgG1, lambda, N297A, V domains shown)
VH: B1 VH with D55A, S84R, R87T, V93L
VL: B1 VL
B9: anti-mutCALR antibody clone 68 (antibody, human IgG1, lambda, N297A, V domains shown)
VH: B1 VH with D55E, S84R, R87T, V93L
VL: B1 VL
B10: anti-mutCALR antibody clone 69 (antibody, human IgG1, lambda, N297A, V domains shown)
VH: B1 VH with G56A, S84R, R87T, V93L
VL: B1 VL
B11: anti-mutCALR antibody clone 170 (antibody, human IgG1, lambda, N297A)
heavy: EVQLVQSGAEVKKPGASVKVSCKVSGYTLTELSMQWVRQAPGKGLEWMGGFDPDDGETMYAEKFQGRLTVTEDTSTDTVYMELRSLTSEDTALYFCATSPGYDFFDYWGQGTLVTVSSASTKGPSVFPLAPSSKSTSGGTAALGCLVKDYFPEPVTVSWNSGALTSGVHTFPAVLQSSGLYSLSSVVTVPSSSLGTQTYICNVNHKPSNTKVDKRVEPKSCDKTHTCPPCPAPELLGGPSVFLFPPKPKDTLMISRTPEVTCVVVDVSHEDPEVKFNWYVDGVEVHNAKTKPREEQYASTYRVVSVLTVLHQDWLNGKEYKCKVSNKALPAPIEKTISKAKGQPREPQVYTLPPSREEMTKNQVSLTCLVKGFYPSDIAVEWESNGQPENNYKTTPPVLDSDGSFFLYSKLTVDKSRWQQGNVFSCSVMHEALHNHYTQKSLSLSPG
light: SYVLTQPPSVSVAPGQTARITCGGSDIGDEIVHWYQQKPGQAPVLVVYDDSDRPSGIPERFSGSNSGNTATLTISRAQAGDEADYYCQVWDSSSDHLIFGGGTKLTVLGQPKAAPSVTLFPPSSEELQANKATLVCLISDFYPGAVTVAWKADSSPVKAGVETTTPSKQSNNKYAASSYLSLTPEQWKSHRSYSCQVTHEGSTVEKTVAPTECS
B12: anti-mutCALR antibody clone 184 (antibody, human IgG1, lambda, N297A, V domains shown)
VH: B1 VH with G56A, S84R, R87T, V93L
VL: SYVLTQPPSVSVAPGQTARITCGGSDIGDEIVHWYQQKPGQAPVLVVYDDSDRPSGIPERFSGSNSGNTATLTISRVEAGDEADYYCQVWDSSSDHLIFGGGTKLTVLG
B13: anti-mutCALR antibody clone 187 (antibody, human IgG1, lambda, N297A, V domains shown)
VH: B1 VH with D55S
VL: B12 VL
B14: anti-mutCALR antibody clone 171 (antibody, human IgG1, lambda, N297A, V domains shown)
VH: B1 VH with D55A, S84R, R87T, V93L
VL: B12 VL with V77A, E78Q
B15: anti-mutCALR antibody clone 183 (antibody, human IgG1, lambda, N297A, V domains shown)
VH: B1 VH with D55E, S84R, R87T, V93L
VL: B12 VL
B16: anti-mutCALR antibody clone 173 (antibody, human IgG1, lambda, N297A, V domains shown)
VH: B1 VH with D55E, S84R, R87T, V93L
VL: B12 VL with V77A, E78Q
B17: anti-mutCALR antibody clone 189 (antibody, human IgG1, lambda, N297A, V domains shown)
VH: B1 VH with G56A
VL: B12 VL
B18: anti-mutCALR antibody clone 186 (antibody, human IgG1, lambda, N297A, V domains shown)
VH: B1 VH with D55A
VL: B12 VL
B19: anti-mutCALR antibody clone 188 (antibody, human IgG1, lambda, N297A, V domains shown)
VH: B1 VH with D55E
VL: B12 VL
B20: anti-mutCALR antibody clone 172 (antibody, human IgG1, lambda, N297A, V domains shown)
VH: B1 VH with D55S, S84R, R87T, V93L
VL: B12 VL with V77A, E78Q
B21: anti-mutCALR antibody clone 182 (antibody, human IgG1, lambda, N297A, V domains shown)
VH: B1 VH with D55S, S84R, R87T, V93L
VL: B12 VL
B22: anti-mutCALR antibody clone 181 (antibody, human IgG1, lambda, N297A, V domains shown)
VH: B1 VH with D55A, S84R, R87T, V93L
VL: B12 VL
B23: anti-mutCALR antibody clone 174 (antibody, human IgG1, lambda, N297A, V domains shown)
VH: B1 VH with G56A, S84R, R87T, V93L
VL: B12 VL with V77A, E78Q
B24: anti-mutCALR antibody clone 55 (antibody, human IgG1, lambda, N297A)
heavy: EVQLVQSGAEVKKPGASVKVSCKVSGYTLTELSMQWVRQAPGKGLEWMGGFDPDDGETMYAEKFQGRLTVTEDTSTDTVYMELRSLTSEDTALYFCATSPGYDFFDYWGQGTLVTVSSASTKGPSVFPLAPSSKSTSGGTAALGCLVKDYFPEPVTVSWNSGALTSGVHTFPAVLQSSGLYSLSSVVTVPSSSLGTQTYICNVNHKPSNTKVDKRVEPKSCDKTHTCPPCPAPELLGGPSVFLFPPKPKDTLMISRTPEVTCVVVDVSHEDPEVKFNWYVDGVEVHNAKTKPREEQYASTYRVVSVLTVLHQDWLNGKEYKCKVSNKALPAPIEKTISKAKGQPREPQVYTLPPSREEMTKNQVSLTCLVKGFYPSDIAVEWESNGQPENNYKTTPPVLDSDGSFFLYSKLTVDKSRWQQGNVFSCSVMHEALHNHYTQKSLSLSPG
light: QSALTQPASVSGSPGQSITISCTGTSSDVGGYNYVSWYQQHPGKAPKLMIYEVSNRPSGVSNRFSGSNSGNTATLTINRVEAGDEADYYCQVWDSSNDLLIFGGGTKLTVLGQPKAAPSVTLFPPSSEELQANKATLVCLISDFYPGAVTVAWKADSSPVKAGVETTTPSKQSNNKYAASSYLSLTPEQWKSHRSYSCQVTHEGSTVEKTVAPTECS
notes: also called antibody 55
B25: anti-mutCALR antibody clone 61 (antibody, human IgG1, lambda, N297A, V domains shown)
VH: B1 VH with D55A
VL: QSALTQPASVSGSPGQSITISCTGTSSDVGGYNYVSWYQQHPGKAPKLMIYEVSNRPSGVSNRFSGSNSGNTATLTINRVEAGDEADYYCQVWDSSNDLLIFGGGTKLTVLG
B26: anti-mutCALR antibody clone 62 (antibody, human IgG1, lambda, N297A, V domains shown)
VH: B1 VH with D55S
VL: B25 VL
B27: anti-mutCALR antibody clone 56 (antibody, human IgG1, lambda, N297A, V domains shown)
VH: B1 VH with D55A, S84R, R87T, V93L
VL: B25 VL
B28: anti-mutCALR antibody clone 64 (antibody, human IgG1, lambda, N297A, V domains shown)
VH: B1 VH with G56A
VL: B25 VL
B29: anti-mutCALR antibody clone 63 (antibody, human IgG1, lambda, N297A, V domains shown)
VH: B1 VH with D55E
VL: B25 VL
B30: anti-mutCALR antibody clone 59 (antibody, human IgG1, lambda, N297A, V domains shown)
VH: B1 VH with G56A, S84R, R87T, V93L
VL: B25 VL
B31: anti-mutCALR antibody clone 58 (antibody, human IgG1, lambda, N297A, V domains shown)
VH: B1 VH with D55E, S84R, R87T, V93L
VL: B25 VL

Substitutions are numbered along the chain they refer to.

The target of this assay is T1, human mutCALR on BaF3 cells stably …. As to the kind of experiment: flow cytometry, BaF3 MPL-mutCALR cells. Here is the method: On the day of the assay, cells were washed and resuspended in assay buffer. Approximately 200,000 cells/well were added to 96-well plates and stained with the indicated concentration of antibodies for 30 minutes on ice. Cells were then washed and stained with goat anti-human secondary conjugated to R-phycoerythrin (R-PE) (Jackson Immuno Research Laboratories) for 30 minutes on ice. The cells were then washed and analyzed by flow cytometry.
(In flow cytometry, cells or beads pass a laser one at a time.)
B1: a half-maximal response (EC50) required 1.9 ng/mL and the “MPL-mutCALR AUC” value was 84800.

For B2, the EC50 came out at 3.3 ng/mL and the “MPL-mutCALR AUC” value was 58000.

Take B3: the EC50 is 2.2 ng/mL and the “MPL-mutCALR AUC” value is 81800.

Regarding B4, the midpoint of the response, the EC50, lay at 8.1 ng/mL and the “MPL-mutCALR AUC” value came to 63900.

On to B5, for which it took 5.9 ng/mL to reach a half-maximal effect (EC50) and the “MPL-mutCALR AUC” value was determined as 81200.

B6: a half-maximal response (EC50) required 9.7 ng/mL and the “MPL-mutCALR AUC” value turned out to be 55900.

Turning to B7, the EC50 came to 2 ng/mL and the “MPL-mutCALR AUC” value was determined as 67600.

Take B8: a half-maximal response (EC50) required 5.8 ng/mL and the “MPL-mutCALR AUC” value amounted to 65000.

As to B9, the response was half-maximal at 3.3 ng/mL (EC50) and the “MPL-mutCALR AUC” value was found to be 68700.

For the molecule B10, a half-maximal effect (EC50) was put at 2.1 ng/mL and the “MPL-mutCALR AUC” value is 71800.

B11: the EC50 stood at 23.2 ng/mL and the “MPL-mutCALR AUC” value turned out to be 76400.

On to B12, for which the EC50 worked out at 6.3 ng/mL and the “MPL-mutCALR AUC” value was found to be 61600.

B13: the EC50 worked out at 3.5 ng/mL and the “MPL-mutCALR AUC” value worked out at 49500.

On to B14, for which a half-maximal response (EC50) required 21.7 ng/mL and the “MPL-mutCALR AUC” value stood at 50300.

As for B15, the EC50 is 5 ng/mL and the “MPL-mutCALR AUC” value worked out at 70700.

As to B16, the EC50 amounted to 4.3 ng/mL and the “MPL-mutCALR AUC” value was 67300.

As to B17, the EC50 worked out at 10 ng/mL and the “MPL-mutCALR AUC” value came out at 57200.

As for B18, the EC50 came to 3.9 ng/mL and the “MPL-mutCALR AUC” value amounted to 53000.

Regarding B19, a half-maximal effect (EC50) was put at 4.4 ng/mL and the “MPL-mutCALR AUC” value is 68000.

As for B20, the EC50 is 12.4 ng/mL and the “MPL-mutCALR AUC” value was 53600.

Turning to B21, the response was half-maximal at 5.2 ng/mL (EC50) and the “MPL-mutCALR AUC” value was found to be 52100.

Regarding B22, the EC50 amounted to 3.5 ng/mL and the “MPL-mutCALR AUC” value came out at 55600.

With B23, the EC50 was found to be 4 ng/mL and the “MPL-mutCALR AUC” value came to 63500.

For the molecule B24, the EC50 is 10.1 ng/mL and the “MPL-mutCALR AUC” value stood at 73100.

Turning to B25, the EC50 stood at 6.3 ng/mL and the “MPL-mutCALR AUC” value is 62400.

As to B26, a half-maximal response (EC50) required 5.4 ng/mL and the “MPL-mutCALR AUC” value is 58800.

In the case of B27, the EC50 was found to be 6.9 ng/mL and the “MPL-mutCALR AUC” value came out at 64400.

Regarding B28, the midpoint of the response, the EC50, lay at 7.2 ng/mL and the “MPL-mutCALR AUC” value worked out at 73200.

As to B29, the EC50 amounted to 5.5 ng/mL and the “MPL-mutCALR AUC” value worked out at 69100.

With B30, it took 7.7 ng/mL to reach a half-maximal effect (EC50) and the “MPL-mutCALR AUC” value worked out at 75700.

As for B31, a half-maximal effect (EC50) was put at 8.6 ng/mL and the “MPL-mutCALR AUC” value was determined as 69800.
